These results are taken from US20080004436A1 (YEDA RESEARCH AND DEVELOPMENT CO LTD AT THE WEIZMANN …, published 2008).

Assay [1] has as its target T1, colicin E7 DNase (ColE7) (E. coli, UniProt Q47112 444-576).
T1 sequence: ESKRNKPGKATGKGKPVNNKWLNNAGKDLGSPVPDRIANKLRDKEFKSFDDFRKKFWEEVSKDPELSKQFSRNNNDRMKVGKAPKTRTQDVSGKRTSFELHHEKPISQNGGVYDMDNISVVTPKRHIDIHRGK
The assay is described as follows: cell-based or functional assay.

Assay [2] concerns the target T1, colicin E7 DNase (ColE7). Nature of the assay: affinity measurements (Kleanthous laboratory; method not stated).
The target of assay [3] is T1, colicin E7 DNase (ColE7). Nature of the assay: not stated (running text of Example 4).
Another assay concerns the target T2, colicin E9 DNase (ColE9) (E. coli, UniProt P09883 449-582).
T2 sequence: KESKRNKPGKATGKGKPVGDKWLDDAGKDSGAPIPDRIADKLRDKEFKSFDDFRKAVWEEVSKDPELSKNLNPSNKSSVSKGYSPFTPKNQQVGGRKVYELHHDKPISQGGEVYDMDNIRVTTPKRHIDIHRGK
The assay is described as follows: not stated (running text of Example 4).

B1: immunity protein 7 (Im7), wild type (other)
chain: MELKNSISDYTEAEFVQLLKEIEKENVAATDDVLDVLLEHFVKITEHPDGTDLIYYPSDNRDDSPEGIVKEIKEWRAANGKPGFKQG
notes: also called wild-type Im7
With B1, in the assay with colicin E7 DNase (ColE7) [1], the “ColE7 concentration at which full protection was observed, in vivo protection assay, 0.05 mM IPTG” value is more than 100 µM; the “ColE7 concentration at which full protection was observed, in vivo protection assay, 1 mM IPTG” value was more than 100 µM; the “ColE7 concentration at which full protection was observed, in vivo protection assay, w/o IPTG” value is 100 µM. In the assay with colicin E7 DNase (ColE7) [2], this molecule gave a Kd not above 0.01 pM, a koff not above 1e-05 s⁻¹ and a kon of 7.6e+08 M⁻¹ s⁻¹. Moreover, binding with colicin E7 DNase (ColE7) [3] was characterised by a dissociation constant (Kd) of 0.00079 pM. For the same molecule, binding in the assay with colicin E9 DNase (ColE9) was put at a Kd of 56000 pM.

B2: in vitro evolved Im9 variant #8 (Round 8, high stringency) (designed binder)
chain: MELKHRISDYTEAEFLQLVTTICDANASSEEELDKLITHFEEMTEHPSGSDLIYWPKEGDDDSPSGIVNTVKQWRAANGKSGFKQG
notes: also called Evolved Im variant#8; evolved variant 8
B2: in the assay with colicin E7 DNase (ColE7) [2], the affinity, expressed as Kd, was 3.85 pM; the koff is 0.0032 s⁻¹; the kon was found to be 8.3e+08 M⁻¹ s⁻¹.

In general, Kd refers to the free concentration of one partner at which half of the binding sites on the other are occupied at equilibrium, for simple one-to-one binding. Low readings indicate higher affinity, high ones lower affinity. What is called koff is the rate constant with which the complex falls apart. Usually kon stands for the second-order rate constant of association.
